The source of these data is publication PMC10350915, “Development of a New Class of CXCR4-Targeting Radioligands Based on the Endogenous Antagonist EPI-X4 for Oncological Applications” (Journal of Medicinal Chemistry, 2023).

Square brackets hold non-standard residues; d marks the D form. Side chains are listed from the residue outwards. Ends that are not written are not given here. Peptide text beside a SMILES is read from it. * marks the point of attachment. DOTA = O=C(O)CN1CCN(CC(=O)O)CCN(CC(=O)*)CCN(CC(=O)O)CC1; dTyr(3-I) = N[C@H](Cc1ccc(O)c(I)c1)C(=O)O; 2Nal = N[C@@H](Cc1ccc2ccccc2c1)C(=O)O; Palmitoyl = CCCCCCCCCCCCCCCC(=O)*; dNMeOrn = CN[C@H](CCCN)C(=O)O; 4Amb = NCc1ccc(C(=O)O)cc1

Data set [1] is classed as in vitro ADME. The conditions noted are these: human, plasma, plasma protein binding (PPB). As for the experimental part:
(§1) Figure 3 Stability of the ^177Lu ligands in human plasma at 37 °C, expressed as % of intact radioligand over time, assessed by radio-HPLC. The % of plasma protein binding (PPB) after 60 min incubation is provided in parenthesis and it is expressed as the % of radioligand in the protein fraction (pellet) versus the total activity in the plasma. TEXT PRINTED IN THE PICTURE: ^177Lu-1: PPB: 35% | ^177Lu-2: PPB: 22% | ^177Lu-5: PPB: 42% | ^177Lu-6: PPB: 38% | ^177Lu-7: PPB: 39% | ^177Lu-9: PPB: 37%
For the determination of plasma protein binding (PPB), 100 μL from the plasma incubated with the ^177Lu ligand was removed and measured in a γ-counter (total radioactivity). Protein precipitation and separation followed, as described above. The supernatant and the protein pellet were then measured in a γ-counter. The percentage of plasma protein binding was calculated as the ratio between the protein-bound radioactivity and the total radioactivity in the plasma.

Data set [2] is classed as in vitro ADME, human. As for the experimental part:
Representative radiochromatograms are provided in Figure S25 for ^177Lu-1, ^177Lu-2, and ^177Lu-7. This included ^177Lu-9 despite its fatty acid chain.
as §1
To 1 mL of fresh human plasma, previously equilibrated at 37 °C, 500 pmol (8–10 MBq) of each ^177Lu-labeled ligand was added. The mixture was incubated at 37 °C for different time points (0, 15, 30, 60, and 120 min). At each time point, a 100 μL aliquot was removed and treated with 1.5 excess (v/v) of acetonitrile, to precipitate plasma proteins, followed by centrifugation for 5 min at 3500 rpm. The supernatant was collected and the process of protein precipitation was repeated. Afterward, 100 μL from the supernatant was taken, diluted with water at a ratio of 1:10 (v/v), and injected into radio-HPLC. The radioligand (in)stability was assessed by quantifying the percentage of intact radioligand over time.

Data set [3] is classed as physicochemical. The conditions noted are these: pH 7.4. As for the experimental part:
In a prelubricated eppendorf tube, a presaturated mixture of 500 μL of octanol and 500 μL of phosphate-buffered saline (PBS) were added. 1 pmol of the ^177Lu-labeled ligand was pipetted into this mixture, vortexed for 30 min, and then centrifuged at 3000 rpm for 10 min to achieve phase separation. Aliquots of 100 μL were removed from the octanol and from the PBS phase and the activity measured in a γ-counter. The distribution coefficient was calculated as the average log ratio value of the radioactivity in the organic fraction and PBS fraction.

For data set [4] the following is noted: cited from earlier work.
For data set [5] the following is noted: cited from earlier work. The source holds these as a separate data set.
Data set [6] is described as follows: Shelf-life of 177Lu-labeled ligands at room temperature (radio-HPLC). The format is physicochemical. As to the method: The shelf-life of each ^177Lu-labeled ligand was monitored at room temperature up to 24 h after radiolabeling.
The shelf-lives of ^177Lu-labeled ligands were assessed at room temperature (RT) in the buffer used for labeling, as described above. For the analysis, 5 μL was withdrawn at desired time points (0, 1, 2, 4, and 24 h) from the stock solution and mixed with 50 μL of the Ca-DTPA solution. 20 μL of this mixture was withdrawn and injected in RP-HPLC.

A further data set deals with Jurkat xenografts. The format is in vivo, mouse. The conditions noted are these: 1 h p.i., SPECT/CT or PET/CT. As for the experimental part:
The ability of the ^177Lu ligands to target CXCR4 in vivo was assessed by SPECT/CT imaging in Jurkat xenografts. […] 1 h after injection, the remaining amount of radioligand in the body (and vice versa, the washout) was quantified by measuring the total body activity (mouse) in a dose calibrator. The % of the radioligand remaining in the body after 1 h is reported in Figure 6A as % of the remaining activity in reference to the injected activity (100%).
Figure 6 SPECT/CT images as maximum intensity projections (MIPs) of Jurkat tumor-bearing mice at 1 h p.i. of ^177Lu-labeled ligands (200 pmol, ∼15 MBq). […] (B) Same SPECT/CT images of ^177Lu-1, ^177Lu-2, ^177Lu-5, and ^177Lu-6, adapted in a lower scale. T: tumor, L: liver, and K: kidneys. […] TEXT PRINTED IN THE PICTURE: (A) ^177Lu-1: Remaining Activity (% injected): 6 % | (A) ^177Lu-2: Remaining Activity (% injected): 7 % | (A) ^177Lu-5: Remaining Activity (% injected): 7 % | (A) ^177Lu-6: Remaining Activity (% injected): 8 % | (A) ^177Lu-7: Remaining Activity (% injected): 55 % | (A) ^177Lu-9: Remaining Activity (% injected): 94 %
The experimental protocol involving animals was approved by the Veterinary Office (Department of Health) of the Cantonal Basel-Stadt (Approval No. 30515) in accordance with the Swiss regulations for animal treatment. Female athymic nude-Foxn1^nu/Foxn1^+ mice (Envigo, The Netherlands), 4–6 weeks old, were injected subcutaneously with 10^7 Jurkat cells in a 200 μL (1:1) mixture of PBS and Matrigel (CorningMatrigelMembrane matrix, Fischer Scientific, Germany) on the right shoulder. The tumors were allowed to grow for 3–4 weeks before commencement of the experiments.
Nude mice bearing Jurkat xenografts were intravenously injected via the tail vein with ∼15 MBq (200 pmol) of the ^177Lu ligands and 8 MBq (200 pmol) of ^68Ga-7 were euthanized 1 h post injection (p.i.). The radioactivity in the syringe before and after injection was measured followed by measuring the amount of radioactivity remaining in the sacrificed mice. […]

The subject of a further data set is Ghost-CXCR4 cells. In words: Cellular uptake and distribution in Ghost-CXCR4 cells. The following applies: 37 °C, 60 min. The format is cell-based, human. As to the method:
Figure 4 In vitro assessment in Ghost-CXCR4 cells at 37 °C. […] Each experiment was performed in triplicate. Results are means ± SD [% of applied activity] from a minimum of two separate experiments. […] Cellular uptake was interrupted at 15, 30, and 60 min by removing the medium and washing twice with ice-cold PBS. The cell surface-bound radioligand was obtained by washing cells twice with ice-cold glycine buffer (pH 2.8) followed by a collection of the internalized fraction after treating the cells with 1 M sodium hydroxide (NaOH). The activity in each fraction was measured in a γ-counter. […] The results were expressed as a percentage of the applied radioactivity after subtracting the nonspecific uptake.

The conditions of data set [7]: in vivo; cited from earlier work.

Consider `CC[C@H](C)[C@H](N)C(=O)N[C@@H](CC(C)C)C(=O)N[C@@H](CCCNC(=N)N)C(=O)N[C@@H](Cc1c[nH]c2ccccc12)C(=O)N[C@@H](CO)C(=O)N[C@@H](CCCNC(=N)N)C(=O)N[C@@H](CCCCN)C(=O)N[C@@H](CC(C)C)C(=O)N1CCC[C@H]1C(=O)N[C@@H](CO)C(=O)N[C@H](C(=O)N[C@@H](CO)C(=O)N[C@@H](CCCCNC(=O)CN1CCN(CC(=O)O)CCN(CC(=O)O)CCN(CC(=O)O)CC1)C(=O)O)C(C)C` [^177Lu-2, metal not drawn] (H-ILRWSRKLPSVSK(DOTA)-OH; N-terminus and C-terminus assumed), for which, in [1], the unbound share (fraction unbound) at 60 min was 0.78. In addition, in data set [2], the “time to complete degradation in human plasma” value is given as 60 min. For the same compound, the log distribution coefficient (logD) in data set [3] was -3.23 ± 0.23.

On to `CN1C(=O)[C@@H](Cc2ccc(O)c(I)c2)NC(=O)CNC(=O)[C@H](Cc2ccc3ccccc3c2)NC(=O)[C@H](CCCN=C(N)N)NC(=O)[C@H]1CCCNC(=O)c1ccc(CNC(=O)CN2CCN(CC(=O)O)CCN(CC(=O)O)CCN(CC(=O)O)CC2)cc1.[177Lu]` [^177Lu-Pentixather, cyclo(3-iodo-D-Tyr^1-D-[NMe]Orn^2(AMBS-(^177Lu-DOTA)-Arg^3-Nal^4-Gly^5)] (cyclo([2Nal]G[dTyr(3-I)][dNMeOrn]([4Amb-DOTA])R)), for which, in data set [4], the “plasma protein binding (PPB)” value was 97%.

For LVRYTKKVPQVSTPTL [EPI-X4], the “half-life in human plasma” value in data set [5] was 17 min.

With `CC[C@H](C)[C@H](N)C(=O)N[C@@H](CC(C)C)C(=O)N[C@@H](CCCNC(=N)N)C(=O)N[C@@H](Cc1c[nH]c2ccccc12)C(=O)N[C@@H](CO)C(=O)N[C@@H](CCCNC(=N)N)C(=O)N[C@@H](CCCCN)C(=O)N[C@@H](CC(C)C)C(=O)N1CCC[C@H]1C(=O)N[C@@H](CS)C(=O)N[C@H](C(=O)N[C@@H](CO)C(=O)O)C(C)C` [JM#21, I^1LRWSRK^7LPCVS^12], the “half-life in human plasma” value in data set [5] is listed as about 6 min.

Consider `CCCCCCCCCCCCCCCC(=O)N[C@@H](CCC(=O)O)C(=O)NCCCC[C@H](NC(=O)[C@H](CCCNC(=N)N)NC(=O)[C@H](CO)NC(=O)[C@H](Cc1c[nH]c2ccccc12)NC(=O)[C@H](CCCNC(=N)N)NC(=O)[C@H](CC(C)C)NC(=O)[C@H](N)CC(C)C)C(=O)N[C@@H](CCCCNC(=O)CN1CCN(CC(=O)O)CCN(CC(=O)O)CCN(CC(=O)O)CC1)C(N)=O` [^177Lu-9, metal not drawn] (H-[dL]LRWSRK([Glu-Palmitoyl])K(DOTA)-NH2; N-terminus assumed), for which the “radiochemical purity (%)” value in data set [6] (0 h after radiolabeling) was 96 ± 3%; in [6] (1 h after radiolabeling) it was 96 ± 2%; in data set [6] (2 h after radiolabeling), 94 ± 1%; in [6] (4 h after radiolabeling), 93 ± 1%. In [1], the fraction unbound at 60 min is 0.63. The “visualization of CXCR4-expressing tumor xenograft by imaging” value in the data set with Jurkat xenografts is listed as “failed to visualize CXCR4-expressing tumors”. For the same compound, the “metabolic stability in plasma (in words)” value in data set [2] (human, plasma) is given as “high metabolic stability in plasma up to 4 h”. In data set [3], this compound gave a logD of 0.29 ± 0.1. In the data set with Ghost-CXCR4 cells, the “cellular uptake (% of the applied activity)” value came out at 3.25 ± 0.06%. Besides, in the data set with Ghost-CXCR4 cells, the “subcellular distribution (membrane-bound vs internalized)” value is reported as “almost entirely internalized”.

On to `CN1C(=O)[C@@H](Cc2ccc(O)cc2)NC(=O)CNC(=O)[C@H](Cc2ccc3ccccc3c2)NC(=O)[C@H](CCCN=C(N)N)NC(=O)[C@H]1CCCNC(=O)c1ccc(CNC(=O)CN2CCN(CC(=O)[O-])CCN(CC(=O)[O-])CCN(CC(=O)[O-])CC2)cc1.[68Ga+3]` [^68Ga-Pentixafor, cyclo(D-Tyr^1-D-[NMe]Orn^2(AMBS-(^68Ga-DOTA))-Arg^3-Nal^4-Gly^5)] (cyclo([2Nal]G[dY][dNMeOrn]([4Amb-DOTA])R)), for which, in data set [7], the “activity in the blood” value is on record as 1.08 ± 0.27 %IA/g and the “uptake in the kidneys” value is 3.06 ± 0.63 %IA/g.
